The values that follow come from paper PMC3828196 (PLoS ONE, 2013).

Series [1] deals with Cys30 (UniProt position 49, FFSFYCPHCNT). Particulars: not stated; cited from earlier work.
A further series concerns the target KpDsbA. Description: ITC binding of DsbB-derived peptides to KpDsbA. More on the design: species or system K. pneumoniae. On the procedure:
Amidation and acetylation ensure that there are no charges on the peptide termini, as these are not present in the native DsbB loop sequence. Binding affinity was measured using a MicroCal™ Auto-iTC200 from (GE Healthcare, USA) at 25 °C. The sample cell was loaded with 200 μL of 100 μM KpDsbA or EcDsbA in 25 mM HEPES, 50 mM NaCl, pH 7.4, and DMSO 0.8 %. The peptide (3 mM) diluted in the same buffer was titrated with an initial injection of 0.5 μL into DsbA, followed by 19 consecutive injections (2.0 μL) offset by 180 s, while the solution was constantly stirred (1000 rpm). Data were fitted to a single-site binding model using MicroCal™ Origin 7.0 software (Origin 7 SR4 v7.0552). Experiments were conducted in triplicate and affinity and thermodynamic parameters are reported as means and standard deviations (Table 4).

In series [2] the target is T1, Cys30 (UniProt position 49, FFSFYCPHCYQ). Description: UV-vis. Particulars: 22 °C; 200 mM KCl plus buffer salts (total ionic strength not stated); 10 mM Tris, 10 mM sodium citrate, 10 mM K2HPO4, 10 mM KH2PO4, 200 mM KCl, 1 mM EDTA; Reduced KpDsbA (40 μM), with oxidised KpDsbA as reference.
Series [3] deals with Klebsiella pneumoniae DsbA (K. pneumoniae). Description: ITC; peptide (3 mM) titrated into 100 μM DsbA in the cell; 25 mM HEPES, 50 mM NaCl, pH 7.4, DMSO 0.8 %; 25 °C by the methods (20 °C by the footnote of Table 4); single-site binding model; apparent Kd; triplicate.
Series [4] concerns the target T1, Cys30. The following applies: not stated; cited from earlier work.
Series [5] concerns the target Cys30 (UniProt position 49, FFSFFCPHCYQ). The following applies: not stated; cited from earlier work.
For series [6], the system named is insulin. Description: Insulin disulfide reductase activity. The class given is biochemical. Particulars: 10 μM enzyme, 0.33 mM DTT, 2 mM EDTA, 100 mM phosphate pH 7.0, 0.131 mM insulin; OD650nm turbidity; three repeats. On the procedure: Under mild reducing conditions, DsbA proteins can reduce the intermolecular disulfide bonds formed between insulin chains A and B [3]. The rate of disulfide bond reduction can be spectroscopically followed at OD650nm by an increase in turbidity resulting from production of the insoluble insulin chain B [20]. Samples were prepared in 1 cm cuvettes containing 10 μM of protein (KpDsbA, EcDsbA or EcDsbC), 0.33 mM DTT and 2 mM EDTA in 100 mM NaH2PO4 / Na2HPO4 titrated to pH 7.0. Catalysis was initiated by the addition of 0.131 mM insulin (I0516, Sigma-Aldrich, Australia) to the sample mixture. The assay was repeated three times and data were plotted showing standard deviations.

Series [7] can be described thus: Temperature-induced unfolding by far-UV CD. Type of series: physicochemical. On the procedure: Temperature-induced unfolding of native SeDsbA and KpDsbA was determined as described previously using a Jasco J-810 circular dichroism (CD) spectropolarimeter (Jasco, USA). The redox state of the protein was confirmed using Ellman’s reagent. The largest difference in molar ellipticity for oxidized or reduced enzymes was calculated from initial far-UV CD spectra (from 250 nm to 190 nm) recorded at 25 °C and 95 °C, respectively. The unfolding of oxidized and reduced protein (SeDsbAox = 220 nm, SeDsbAred = 220.5 nm and KpDsbAox = 211 nm, KpDsbAred = 209.5 nm) was monitored at a heat rate of 1 K / min from 298 K to 368 K in a 1 mm quartz cuvette. All measurements were carried out with 10 µM protein in 100 mM NaH2PO4 / Na2HPO4, 1 mM EDTA at pH 7.0. Samples for measurement of reduced enzyme contained 0.75 mM DTT. Raw data were analyzed in Prism and fitted to a two-state unfolding model as described previously. The standard deviation was measured from three replicates.

Series [8] in a line: In vitro peptide dithiol oxidation (europium fluorescence). Type of series: biochemical. The following applies: pH 5.5. On the procedure: A peptide ([…]) with a 1,4,7,10-tetraazacyclododecane-1,4,7,10-tetraacetic acid (DOTA) group amide-coupled to the N-terminus, and a methylcoumarin amide-coupled to the ε-amino group of the C-terminal lysine, was purchased from AnaSpec (Fremont, CA). Lyophilized peptide was re-suspended in 100 mM imidazole, pH 6, at a concentration of 2 mM. Europium trifluoromethanesulfonate (Sigma Aldrich, Australia) solution (100 mM) was added to the peptide at a molar ratio of 2:1 and incubated for 5 min at room temperature, to allow europium chelation. The peptide solution was then immediately aliquoted, flash frozen in liquid nitrogen and stored at -80°C. An increase in fluorescence occurs upon oxidation of the peptide cysteines to form a disulfide. Thus, fluorescence can be used to monitor the capacity of DsbA enzymes to catalyse dithiol oxidation.
Assays were conducted using a Synergy H1 multimode plate reader (BioTek, USA) with the excitation wavelength set to 340 nm and emission to 615 nm. A 150 μs delay before reading and 100 μs reading time were used for time-resolved fluorescence. The assay was performed in a white 384-well plate (Perkin Elmer OptiPlate-384, Part #: 6007290). The buffer consisted of 50 mM MES, 50 mM NaCl and 2 mM EDTA at pH 5.5. The reaction consisted of a 50 μL solution in each well, containing 160 nM EcDsbA, KpDsbA or SeDsbA, 1.6 μM EcDsbB (crude membrane extracts, containing ubiquinone) and 8 μM peptide substrate added last to initiate the reaction. Samples containing buffer and DsbA or buffer and peptide were used as controls. Data were measured for three replicates and are presented as mean values, with the standard error of the mean indicated by error bars.

The conditions of series [9]: SeDsbA, cited from earlier work. An excerpt:
The past 5 years has seen the characterization of DsbA enzymes from many other bacteria including DsbAs with varying degrees of sequence identity to EcDsbA such as Neisseria meningitidis DsbA1 (NmDsbA1, 23% identity), Pseudomonas aerugin ... || EcDsbA and SeDsbA share 86 % sequence identity and both have been characterized previously. […] Both are similarly oxidizing enzymes: the redox potentials of EcDsbA and SeDsbA are -122 and -126 mV, respectively, whereas the range for all DsbAs is -80 to -163 mV (Table 1 ). In b ... || (+ 1 further places)

In series [10] the test system is insulin. Particulars: cited from earlier work.
For series [11], the system named is E. coli dsbA- null (JCB817). Particulars: SeDsbA, null mutant motility assay; ref [44]; cited from earlier work.
The target in the next series is T2, Escherichia coli DsbA (E. coli, UniProt P0AEG4 20-208).
T2 construct: also called EcDsbA; E. coli DsbA; source: purified as described for KpDsbA (BL21(DE3)pLys, Talon resin, TEV protease, Superdex75)
T2 sequence (looked up): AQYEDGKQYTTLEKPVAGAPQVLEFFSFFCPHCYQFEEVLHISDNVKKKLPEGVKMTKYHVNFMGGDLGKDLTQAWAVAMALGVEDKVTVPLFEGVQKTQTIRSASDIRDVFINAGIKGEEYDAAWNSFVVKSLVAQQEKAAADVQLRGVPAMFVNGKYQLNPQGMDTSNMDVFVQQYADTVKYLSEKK
Description: ITC; peptide (3 mM) titrated into 100 μM DsbA in the cell; 25 mM HEPES, 50 mM NaCl, pH 7.4, DMSO 0.8 %; 25 °C by the methods (20 °C by the footnote of Table 4); single-site binding model; apparent Kd; triplicate. The following applies: both partners purified.

“And” between values parts separate entries of the source, which are not always exact repeats. Equal values may be shown once. “Also recorded” adds a separate entry of the source. Read-outs that look alike come from different tables or passages of the source.

Turning to DsbA (VcDsbA, TcpG) (Vibrio cholerae), the pKa in the series with Cys30 [1] is 5.1.

As to `CC(=O)N1CCC[C@H]1C(=O)N[C@@H](CO)C(=O)N1CCC[C@H]1C(=O)N[C@@H](Cc1ccccc1)C(=O)N[C@@H](C)C(=O)N[C@H](C(=O)N[C@@H](CS)C(=O)N[C@@H](CC(=O)O)C(N)=O)[C@@H](C)O`, the Kd is 17.9 ± 1.5 µM on KpDsbA (ITC (Auto-iTC200), cell 100 μM KpDsbA, peptide 3 mM, 25 mM HEPES, 50 mM NaCl, pH 7.4, DMSO 0.8 %, 25 °C in method, 20 °C in table footnote, single-site model, apparent Kd, mean ± SD, three independent experiments, read-out: Kd); 11 to 18 µM on KpDsbA (ITC, range stated for KpDsbA and EcDsbA with PSPFATCD and PSPFQTCD together, read-out: Kd (range over both peptides and both DsbAs)).

On to “DsbA (thiol:disulfide interchange protein DsbA), KpDsbA (Klebsiella pneumoniae (strain 342))”, for which the pKa in the series with Cys30 [2] is recorded as 3.2.

With KpDsbB P2 loop peptide PSPFQTCD, in series [3], the Kd is 16.7 µM, the dH is -11.1 kcal/mol and the stoichiometry N turned out to be 0.97.

For “DsbA (SeDsbA) (Salmonella enterica serovar Typhimurium (strain SL1344))”, in the series with Cys30 [4], the pKa is on record as 3.3.

For the molecule DsbA (EcDsbA) (Escherichia coli (K-12)), the pKa with Cys30 [5] is 3.3.

Take EcDsbB P2 loop peptide PSPFATCD: in series [3], the Kd was found to be 17.9 µM, the dH is -9.5 kcal/mol and the stoichiometry N worked out at 0.93.

B1: EcDsbC: E. coli disulfide isomerase DsbC (AAA83074) (protein, UniProt P0AEG6 21-236, looked up)
Thiol:disulfide interchange …: DDAAIQQTLAKMGIKSSDIQPAPVAGMKTVLTNSGVLYITDDGKHIIQGPMYDVSGTAPVNVTNKMLLKQLNALEKEMIVYKAPQEKHVITVFTDITCGYCHKLHEQMADYNALGITVRYLAFPRQGLDSDAEKEMKAIWCAKDKNKAFDDVMAGKSVAPASCDVDIADHYALGVQLGVSGTPAVVLSNGTLVPGYQPPKEMKEFLDEHQKMTSGK
For the molecule B1, the “insulin disulfide reductase activity” value in the series on insulin [6] was “highly active”.

B2: SeDsbA: S. enterica Typhimurium DsbA (AAB81592) (protein)
chain: AQISDGKQYITLDKPVAGEPQVLEFFSFYCPHCYQFEEVLHVSDNVKKKLPEGTKMTKYHVEFLGPLGKELTQAWAVAMALGVEDKVTVPLFEAVQKTQTVQSAADIRKVFVDAGVKGEDYDAAWNSFVVKSLVAQQEKAAADLQLQGVPAMFVNGKYQINPQGMDTSSMDVFVQQYADTVKYLVDKK
modifications: left off: His6 (inferred: purified as described for KpDsbA), N-terminal, cleaved
For the molecule B2, the Tm reduced in series [7] (10 µM protein, 100 mM phosphate, 1 mM EDTA, pH 7.0, 0.75 mM DTT, 1 K/min 298-368 K, SeDsbA 220.5 nm, KpDsbA 209.5 nm, two-state fit, SD from three replicates) was 351 K and 351.2 ± 0.2 K and 351.2 +/- 0.2 K. In addition, the Tm oxidized in [7] (10 µM protein, 100 mM phosphate, 1 mM EDTA, pH 7.0, 1 K/min 298-368 K, SeDsbA 220 nm, KpDsbA 211 nm, two-state fit, SD from three replicates) was 342.8 ± 0.4 K and 342.8 +/- 0.4 K and 343 K. Besides, the “stabilisation of reduced over oxidized form” value in series [7] (SeDsbA, difference of melting temperatures) is given as 9 K. The “dithiol oxidation signal without EcDsbB” value in series [8] (samples lacking EcDsbB, DsbA plus peptide, time-resolved fluorescence) was “no increase in signal”. The “rate of catalyzed disulfide bond formation” value in [8] (with EcDsbB, 160 nM DsbA, 1.6 μM EcDsbB membrane extract, 8 μM peptide, 50 mM MES, 50 mM NaCl, 2 mM EDTA, time-resolved fluorescence 340/615 nm, three replicates) was “almost indistinguishable from that of EcDsbA”. For the same molecule, the “E°’ (redox potential)” value in series [9] (Table 1, ref [43] and [14]) was -126 mV. For the same molecule, in series [9] (Table 1 and comparison, ref [43] and [14]), the “pKa “Cys30”” value is reported as 3.3. For the same molecule, in series [9] (ref [43]), the “pKa of nucleophilic cysteine” value is given as 3.3 and the redox potential is -126 mV. Besides, the insulin reductase activity result in the series on insulin [10] is “weak disulfide reductants; also recorded: weak insulin reductase activity”. The “complementation of EcDsbA, motility” value in [11] was “can complement EcDsbA; also recorded: can fully restore the motility of dsbA ^- deficient strains”.

B3: KpDsbB P2 loop peptide PSPFQTCD (peptide)
peptide: Ac-PSPFQTCD-NH2
notes: P2 loop of K. pneumoniae DsbB; source: synthetic peptide
For B3, in the series with Escherichia coli DsbA, the Kd came out at 10.9 µM.
